This series in a line: self-splicing fitness, log relative to wild type (ln ratio); higher = more splicing; Tetrahymena group I intron in knt gene, E. coli kanamycin selection, DiMSum; sequences stand for … in CUCUCU…GGAGGGAAAAGUUAUCAGGCAUGCACCUGGUAGCUAGUCUUUAAACCAAUAGAUUGCAUCGGUUUAAAAGGCAAGACCGUCAAAUUGCGGGAAAGGGGUCAACAGCCGUUCAGUACCAAGUCUCAGGGGAAACUUUGAGAUGGCCUUGCAAAGGGUAUGGUAAUAAGCUGACGGACAUGGUCCUAACCACGCAGCCAAGUCCUAAGUCAACAGAUCUUCUGUUGAUAUGGAUGCAGUUCACAGACUAAAUGUCGGUCGGGGAAGAUGUAUUCUUCUCAUAAGAUAUAGUCGGACCUCUCCUUAAUGGGAGCUAGCGGAUGAAGUGAUGCAACACUGGAGCCGCUGGGAACUAAUUUGUAUGCGAAAGUAUAUUGAUUAGUUUUGGAGUACUCGUGGUCG
The method in brief: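 Library with all eight P1ex-region intron nucleotides randomised, intron inside the knt kanamycin-resistance gene on pET-22b(+), in E. coli BL21(DE3). Cells grew overnight at 37°C or 30°C on LB agar with or without 25 μg/mL kanamycin (plus 100 μg/mL carbenicillin, 50 μM IPTG, 0.2% rhamnose), in six replicate transformations. Pooled colonies were amplicon-sequenced on Illumina HiSeq 2500. DiMSum fitness is the error-weighted combination of wild-type-normalised replicate fold changes, kanamycin versus none.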

± gives the uncertainty stated by the source.

The results in this text go back to the supplement of paper PMC7877785.

Regarding AACGAGCAAUAUUACGUAAG, the “self-splicing fitness (ln)” value is -4.14 ± 0.3 (30 °C) and -0.595 ± 0.14 (37 °C).

Take CGAAAGCAAUAUUACGUUUA: the “self-splicing fitness (ln)” value reads like this: (30 °C) -1.99 ± 0.13; (37 °C) -1.83 ± 0.14.

Take GUGUAGCAAUAUUACGACGG: the “self-splicing fitness (ln)” value was -3.88 ± 0.31 (30 °C) and -0.904 ± 0.15 (37 °C).

With CCGCAGCAAUAUUACGCUAC, the “self-splicing fitness (ln)” value is -4.14 ± 0.28 (30 °C) and -2.37 ± 0.23 (37 °C).

Regarding CACAAGCAAUAUUACGGUAU, the “self-splicing fitness (ln)” value reads like this: (30 °C) -3.8 ± 0.14; (37 °C) -2.35 ± 0.12.

On to CUGUAGCAAUAUUACGACUC, for which the “self-splicing fitness (ln)” value by setting is: (30 °C) -4.11 ± 0.42; (37 °C) -1 ± 0.3.

On to ACAUAGCAAUAUUACGUGCG, for which the “self-splicing fitness (ln)” value is -1.05 ± 0.064 (30 °C) and -0.527 ± 0.081 (37 °C).

In the case of UGCCAGCAAUAUUACGGGCC, the “self-splicing fitness (ln)” value was -3.23 ± 0.21 (30 °C) and -1.73 ± 0.2 (37 °C).

With CUGUAGCAAUAUUACGUACA, the “self-splicing fitness (ln)” value runs as follows: (30 °C) -3.41 ± 0.27; (37 °C) -1.65 ± 0.18.

On to AGCUAGCAAUAUUACGGGAC, for which the “self-splicing fitness (ln)” value is -3.37 ± 0.23 (30 °C) and -1.84 ± 0.24 (37 °C).

Turning to AUGGAGCAAUAUUACGCACG, the “self-splicing fitness (ln)” value reads like this: (30 °C) -2.3 ± 0.3; (37 °C) -1.26 ± 0.34.

Take CCCCAGCAAUAUUACGUGUC: the “self-splicing fitness (ln)” value is -4.78 ± 0.2 (30 °C) and -2.53 ± 0.15 (37 °C).

For AACUAGCAAUAUUACGUCUU, the “self-splicing fitness (ln)” value runs as follows: (30 °C) 0.0966 ± 0.067; (37 °C) 0.781 ± 0.083.

On to GAUUAGCAAUAUUACGUAGU, for which the “self-splicing fitness (ln)” value was -3.06 ± 0.15 (30 °C) and -1.34 ± 0.12 (37 °C).

In the case of ACCUAGCAAUAUUACGCCUA, the “self-splicing fitness (ln)” value is -2.17 ± 0.3 (30 °C) and -2.38 ± 0.3 (37 °C).

As to CUAGAGCAAUAUUACGGGAC, the “self-splicing fitness (ln)” value by setting is: (30 °C) -2.5 ± 0.16; (37 °C) -1.05 ± 0.18.

For UCGCAGCAAUAUUACGUUGA, the “self-splicing fitness (ln)” value runs as follows: (30 °C) -3.11 ± 0.23; (37 °C) -1.06 ± 0.14.

Take GAGAAGCAAUAUUACGUGUG: the “self-splicing fitness (ln)” value by setting is: (30 °C) -2.18 ± 0.12; (37 °C) -1.96 ± 0.15.

For GGGGAGCAAUAUUACGGGGC, the “self-splicing fitness (ln)” value runs as follows: (30 °C) -2.92 ± 0.37; (37 °C) -2.2 ± 0.27.

As to AAGUAGCAAUAUUACGGAAA, the “self-splicing fitness (ln)” value was -2.49 ± 0.3 (30 °C) and -1.84 ± 0.24 (37 °C).

Consider CCUUAGCAAUAUUACGCGUA, for which the “self-splicing fitness (ln)” value runs as follows: (30 °C) -3.27 ± 0.38; (37 °C) -2.54 ± 0.36.

Regarding GUCAAGCAAUAUUACGAUUG, under “37 °C”, the “self-splicing fitness (ln)” value is -3.59 ± 0.34.

Take GAAGAGCAAUAUUACGUAGA: the “self-splicing fitness (ln)” value (30 °C) is -4.54 ± 0.42 and the “self-splicing fitness (ln)” value (37 °C) is -2.21 ± 0.25.

As to ACGUAGCAAUAUUACGAUCG, the “self-splicing fitness (ln)” value reads like this: (30 °C) -1.15 ± 0.1; (37 °C) -0.0917 ± 0.12.

Consider AGCUAGCAAUAUUACGAGAC, for which the “self-splicing fitness (ln)” value was -2.16 ± 0.24 (30 °C) and -2.14 ± 0.31 (37 °C).

As to ACCCAGCAAUAUUACGCCCA, the “self-splicing fitness (ln)” value by setting is: (30 °C) -0.605 ± 0.12; (37 °C) -0.4 ± 0.13.

As to GUACAGCAAUAUUACGAAGA, the “self-splicing fitness (ln)” value was -2.52 ± 0.32 (30 °C) and -1.83 ± 0.28 (37 °C).

With GCGGAGCAAUAUUACGCGUA, the “self-splicing fitness (ln)” value (30 °C) was -2.77 ± 0.29 and the “self-splicing fitness (ln)” value (37 °C) was -1.53 ± 0.15.

Take GUUUAGCAAUAUUACGGCGG: under “30 °C”, the “self-splicing fitness (ln)” value is -3.27 ± 0.44.

For UCAUAGCAAUAUUACGGCUU, the “self-splicing fitness (ln)” value (37 °C) is -1.48 ± 0.26.

As for CGCUAGCAAUAUUACGUAGU, the “self-splicing fitness (ln)” value was -3.48 ± 0.13 (30 °C) and -1.34 ± 0.12 (37 °C).

As for AAGCAGCAAUAUUACGGGCC, the “self-splicing fitness (ln)” value is -1.76 ± 0.15 (30 °C) and -1.53 ± 0.15 (37 °C).

With UCGGAGCAAUAUUACGUCUG, the “self-splicing fitness (ln)” value was -2.56 ± 0.19 (30 °C) and -0.878 ± 0.24 (37 °C).

For UUAGAGCAAUAUUACGGACA, the “self-splicing fitness (ln)” value (30 °C) was -2.08 ± 0.13 and the “self-splicing fitness (ln)” value (37 °C) was -0.655 ± 0.16.

Regarding UCUCAGCAAUAUUACGGGAC, the “self-splicing fitness (ln)” value reads like this: (30 °C) -2.31 ± 0.24; (37 °C) -2.87 ± 0.38.

Turning to GUAAAGCAAUAUUACGAGUA, the “self-splicing fitness (ln)” value reads like this: (30 °C) -1.11 ± 0.12; (37 °C) -0.624 ± 0.14.

Take UUUGAGCAAUAUUACGGUGA: the “self-splicing fitness (ln)” value runs as follows: (30 °C) -2.07 ± 0.15; (37 °C) -2.46 ± 0.18.

In the case of CUCAAGCAAUAUUACGUACG, the “self-splicing fitness (ln)” value is -1.02 ± 0.065 (30 °C) and -0.705 ± 0.088 (37 °C).

With UCAGAGCAAUAUUACGUUCU, the “self-splicing fitness (ln)” value was -3.86 ± 0.22 (30 °C) and -2.47 ± 0.25 (37 °C).
